47 sequences from the NTF2 design screens of Basanta et al. (2020) can be followed below.

The series can be described thus: protease stability score; higher = more stable; yeast display proteolysis, trypsin and chymotrypsin.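 Note: relative to predicted unfolded state with 0 unfolded-like and 1 meaning tenfold more protease.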
On to “EEEKEIAEELIRRIRESLRTGDEDLKHKLADPNVRHIFNGRNNHGREEMLRTLEELIKQFGVENIDIELHDWDHVDGRLHIHVRVRYGDYMMHLRIEAEKVNGRWQSETVELR”, for which the protease stability score amounted to 1.23. Sequence “EEEKESHQWILEVYMHTVRTGDPRMIKELLDPNVKLEAENREVHGREHVLKILWTKLHEMRIEHVTVEDVEVQGNKVRVHNEVHYTFDGQRDILKTEVIATKFDGRWHFKSLREK” registered a protease stability score of 0.222. In the case of “EEEKETERIASEHHLEHLRTGDEETYLRNFDPHVRLDIDGREFHGWEFFRHFLRRMGFKHVRHIQIHHSELFNGRLFFDGTIRFRVGDKEDTFKVEVVDVKFNGRWHIQEFRVK” it was 1.43. “EEEKHLLRRIVRELTESERTGDEDHLDKLLDPHARTNVNGVDFHGREDWRKWTEEFFRRVDHIEFRIEDIKIINGVAIVDTRITMHIGDKHIHFELEIKNVIIDGRVKELRIKFK”: the protease stability score worked out at 0.91.

With “EEEKKETEHWIETFYRIINTGDEETWSKMADPDMRLEVLIDGKKLELHGRDAFEDFVSKMGFDHVHIHDMEVIGEKAHIHTELRYGDKHIRFEIQLVVVNGRYKSVTIRRK”, the protease stability score was 1.75. The same measure for “EEEKKNRAHQFLKAVERGDPEELRKQFDPNAHARVGDKRYHGMEEWAKDVMRRVRELRMSIKRLSVDVQGNDVKVNMNLVINRNGKPKEFREVWYFKIHNGHFVELHVQEEP”: 1.24; for “EEEKRISDRSLEHLVRSWWTGDEQLYTELADPNVRVEIGDKEYHGREDARHALRRELEHIRIKHIVYRRFEFVGEYIHVDTRMLVDVNGVHILRTMHILEFKFDGRWHLTSLIIR”: 1.21; for “EEELELAKKIADTFNHDMETGDEKSRWDLFDPNVRIDWNGKDLHGWEQEEEELERLGITKVELEIKRKEVQGDKVILDGTVRFNGRSTRVHVHIRVVNGRLKSIKIIIR”: 0.345. In the case of “EEEQEDSEWATKLFIEVLETGDEHTSEHLADPDTRVEFNGKILHGREEWNKIVRKVKNARIHFDHIRVQGDKINVDTTVEVDGKRMKFHIISRKFNGVWFLQSIHIK” it was 2.07; in that of “EEEREIHQRHWEERLRAHRTGDEETLERQADPDVRIDFNGVELHGREVAVRFLLEMRLHDVDWRRIHTFDGRVDVDVIVDGEYNGRRYRSTFTLVIIKVNGQWLVHSMEFK”, 0.244.

Sequence “EEERERAKDVFELLWDIEKTGDEDTFTKLADPNVRTHVGDKHFHGRELVAKWLVDVLRELRVHDIEIKSETVINGRNIVDGVLDGHINGRTVKMTTEILILVINGRIREIDIRIL” came in with a protease stability score of 0.825.

As for “EEERETDHRLTEKLRRIIRTGDEEEWSKLVDPNTRVIYGDKQDHGWEAWVRILKDLGAKHIDIEHVDIVNGRVEIHSHLTIGDKHVIIHHRIVHINGKLTEIYIEIHHK”, the protease stability score came to 0.694.

“EEERKEVKFAFDIWSELFLTGDEEDIHHLADPDVRLDINGKNIHGMELIHKIILHDILEWRLEVRVKHIEVQGDKAEIQMELKFRYNGREKHYKFRIIYKKFDGQWRYESIHMR”: the protease stability score was determined as 1.71.

“EEERRDAEIALTVIEHHWETGDEKDLDEMLDPDVRVIINGQRYHGREWLSRFREDLGATYHDVHVDDIRIYDGRVEMDFHVRGKVGDKERDTRVRIFMIKFDGRWVVEQITLE” came in with a protease stability score of 1.95. The same measure for “EEESKVASDIIELHMRFLLTGNWEMFLRLADPHVRIETEDHRDHGRDWYEKLFRHIRSHVEDMRIKHVELQGDKLHAHGSVRLLIVDGDKYIEVEVDFRFIFDKVNGKWILSSIHLK”: 2.29; for “EEHHEITKDLIELLERTMKTGDEDILRKMADPHTKVEQGDKRIIGRDEFQEEWVEWMRRVDHAEVRLTDFREFPNHLELHGTLDVNINGRDIRIEIQIIVSKFDGRWSLHSISFR”: 0.107. Sequence “EEHYEDMHHAMELFIHAVRTGDEHTLSRMLDPNTRIRIDGVHLIGREQAVKWWLELYKKFPNMRLNLKRIDIFDGKLHVDLETNINGVRLDSHLLISKVDGQWRVDSIQHE” yielded a protease stability score of 1.5. Take “EEIHKHLKELFVRWMKELVTGNEDSFKDLFDPHTRIHMHIGDKEIHAHGRKHLEDMILRFKGLRVEFRVEDSTAIGDKAHADFHLIIHVDGKNITTREEVRISVIDGKIREVHHHIN”: the protease stability score worked out at 1.36.

The sequence “EEIIDLMERLAYLWHHWLTTGNEEMLSKFLDPHARIVIGDKIYHGREKIHEELRRHLERFDHIEFRLRHTEVQGNKIHNHGELKLRIGNYTVHYETRFELQIYDGKIHEFQVKID” showed a protease stability score of 1.73. Regarding “EEKEEIDRREMKRFMKAFETGDEHELKELFDPHARVHVGDKVHIGRHNFLRWFKEWIEKYKNVRIELDDVEYQGEKLHLDLTVEINGRRTTQDLVIYKIDGRWLFKNIHVH”, the protease stability score worked out at 0.607. “EELERDMDHWIELVIKLRKTGDWRQLAEMVDPNVRVDVNGVQIHGRESIEELLKRLGIDNVEVSLRDKDRQGEKMIVDMELHYNGKRHETKYIALKINGKWIFETITIR” displayed a protease stability score of 1.38. “EELERDSKEVAERLLWDTLTGDEDLLLHLMDPHVRHIVNGVKLHGREALERAIEEHLSHLGIDHIRIRHIDFRIINGKMDVHIHGESIYNGRVVHMIIIFISTKVNGKWVLEELSIEIR” yielded a protease stability score of 1.85. In turn, “EEMERDIKHAVEVMIRFWETGDERLLTELADPDTKSKIDGRTFHGREDIHKLFHSVIEKVKNIRIEFKRISVQGDKAKIDGTNNFNGREIKTDITLWKFDGRWILESIEIG” showed a protease stability score of 1.43. The same measure for “EENREITEKIMRHWLTLFLTGDFERLIELMDPEVKFLIDGRELHGWEVWRKLMTLTIRRYKNIRIHITSIDVFENHTHVETYENVNGVHIDTRLNLFLVNGRIQSIEMDTK”: 1.7; for “EERERLAEELARIWLEVLETGDWKMLHDLADPNVRNVVGDKEQHGREEMSRFYTEWHEHIRIHRIEIESIDIQGNKIQIHGRIDMEINGKRRDQRLEIIIIVINGRIKRLEVRLH”: 0.948. In turn, “EERKESIRLAVEMIEHVFKTGNPEDEMSLFDPHAKLDVGDKHFHGREEYSRWSEEVRRRYGADHIEFRIEDVHSQGDFVDIHGKEVYIYNGVTFVIDVHFHVLKVNGRWLIKHIRIN” yielded a protease stability score of 1.3.

The sequence “EERNKFAEDFSRIDTESHRTGDEHSLLRLFDPHARIHQGDFEMHGWEEFSRIMRHEIERYKNATFEVRVDRVDVQGDKMISDGRLHIHQGDKIREYRIFIIVTKVNGQWHIEEVHIV” returned a protease stability score of 1.11. “EESEKSAEDATRLIIHMLETGDERLMKHLMDPDVRIEIGEYISIGRENVEELFREWRSKLGIKHIEVKRVRIEVQGNKVHIEMDTRLIVGDKEEETILRVDVVKINGRWYIKSMRLEIR” displayed a protease stability score of 1.95. In the case of “EESEKSAKLLLDWLFRHLITGNEETFQHFADPNARVDQGEKDSHGMEWVRLVLEEIRIDNMHVRDFRIFEGRLIIDTEIRIKYNGVEMTIKVTVVSEKVNGKWRMKSMHVN”, the protease stability score is 1.04. Sequence “EETREASRIALEIFIRDLVTGNEDSLERLADPDTKFIINGRNYHGMEFLREEIRKWLERFKNIRVEVKVHHQRVFENHIEMDGRLDFNYDGQKEILEVRLFMVKFNGKWYIHSIEIR” gave a protease stability score of 2.24. Sequence “EEVEEEVERATRRHVVDLLTGNWDKLIHEMDPNTYLLINGVKFHGREVYEILLREFIRKYKNARYHITVRDYHVQGDKAIIDMEIRIRIGDKEHHIDSELILRKVDGKWFMQEERII” registered a protease stability score of 2.65. As to “EEWEKAIKFAVKLYKEIMETGDEDMQSHLFDPNVRISVGNKERHGMEEVTKIMTEWRLDDHHVNHVELQGNKVSSDGEINGTFDGRRHRVRIVLIILKVNGVWRIEEVRVI”, the protease stability score was 0.162.

Regarding “EEWRDHVHHLLELMLHLWRTGDEEIFHRLLDPDTLVRVNGVEFHGRDAMHHVLHRLIEELGINHYRESDFDIQGNKAFHHGELRVNGKTVLEEQRYVIFNGKIKEIRITLH”, the protease stability score turned out to be 0.271. “EHEDELKHFIHELWKYASDTGDFRTELLLLDPNAKVQVGDKEYHGREWLEFELRRLGVDRIIKEIHIHHEHEQGDKLEIRGELHLLFNGKRIVIDVKLFFLKIDGKWFNRHIIIK”: the protease stability score worked out at 1.75. Sequence “EHEEEHTRHFMHFFIEMVETGDETALHKLLDPNAKYIQGDKHLVGRELMVEWMEELVRRFKNIRVHITEIERQGDKARVDEKWDINGKKIKTELIITKIDGQWRIHEIRVK” showed a protease stability score of 1.23. The same measure for “EHLIEELREMTERIVETILTGDEKHLADLADPNTRSHTHIGDKHYRFHGMDLIYELLHQVKNMRLHLRHTDASFVGNKVYVRLHIDLIFNGRDIHFTIHIIIDKYNGKWFIHHIELIFN”: 1.31; for “ETEEQYAEELARLYIEIWETGDEETLHKLADPDVRNDVDGKQLHGRESMIEFWRKLGISNVHFILHRLHVKTQGDFIDIHIDGQLDINGKVTRVEHRLHVEKYNGRWLLKEIYIKRD”: 1.72.

In turn, “GDEEHHATEALERLIHSFETGDEELMTKLVDPHVRFEVNGKLFIGREDVMRWLKERLDRFDHHRVDFKHIRVVGDKVDIHLVLEVDFNGQHFSHDVRVRIIKINGRWRLTHMSIH” gave a protease stability score of 2.3. “GDLEHMLESMARLWTHEVLTGDEDTLRRLADPNVRFESHVNGQRVEFHGMEEVAEWMRKHLEEIRSRIELRTIEPQGNKAHVDGTTHLHYNGRTVIKKTHVHLSIVDGKIQRVELELR”: the protease stability score was -0.051. As for “GDSEKDAERAIDIFLDTVRTGDERLIHELLDPTTILQVGDKQFHGREEADKWWHELLRKLGHTNIEMEVRDMKVQGDKVHLDTELRFNGRSTRIHVVIIKVNGRWLIEHIEIK”, the protease stability score was 1.23.

“GEDEHLAKRLLDLLIELFHTGDWDFISMLADPHVKLNVNGVQYHGRHDVTKLVHDEAEELRVHIQIHKVDWVGDKVHVDTRLVVNIDGQEHRTKTHIDMIVVNGRLNSMRIEIR”: the protease stability score turned out to be 1.19. Sequence “GEDKELARKAVEEELESLLTGDEDRLKELIDPHTKVFINGREEIGMEALEDVLKKLGFKHIKVHHFDIRVQGDKVKNDLRGIFHVNGKDIDTQLIIISLKYNGQWFNHSLEWRTR” came in with a protease stability score of 0.595. For the sequence “GEEDEEFSKLMDETVKSLQTGDETHLKKLLDPNVILHVGDKEFHGRERAIDWYRHLRIHDMTIHHWEIQGDKAHVDGKLHVEVDGQHYDAKLHIVLEKINGQWYITSIHYK”, the protease stability score was determined as 2.06. In turn, “GEEHELTERAIEHFVDIWKTGDEDSLEENIDPHARIDFNGQQLHGREEMYRFMHKVNRQIKGIRLSFKYIDLRIYGDKVIVHNDGVVRVGDKVHDEQTKLEMRKVDGRWLFKSVTVFVL” yielded a protease stability score of 1.05. Turning to “GEEQEDIKKFLEDDMEAWSTGDFRQLKRNMDPHVRIVINGRHLHGMETFEHFFEHLRVRITSLELKRVEAVGDKVSYDGELDFELDYNGRRLSQRTRVEFRIEKINGRWILHYVIFR”, the protease stability score was 0.329. The same measure for “GEHEDYILHIVDLFIHNILTGDWDAILKLMDPDVRFEIEINGRTIEIHGWEQIKRIMDEIKERADHLHIEIRDKFSVNGVAFFEGTIEIRVGDKRHREDVEIILFVVDGRIKIIRKRDV”: 1.99; for “GEKEELSRLALHLWFRDYHTGDEDSAHRLLDPNVRLHVGDKHFVGRERFTRFWHEVYRELRIDDYILHSEDIQGDKIHMDGRIDGVVGDKREDFRTEIHLIWIDGKLHSEKRDKE”: 0.902.
